This note sets out measurements from paper PMC3766608, “Thermal Stability of Glucokinases in Thermoanaerobacter tengcongensis” (BioMed Research International, 2013).

Holding throughout (format): biochemical, Caldanaerobacter subterraneus
Substrate in the data set “coupled enzyme assay”: Nc1ncnc2c1ncn2[C@@H]1O[C@H](COP(=O)(O)OP(=O)(O)OP(=O)(O)O)[C@@H](O)[C@H]1O
Nature of the data set: coupled enzyme assay. Conditions: Mg2+, Tris-HCl, sugar co-substrate not stated for this constant (pH optimum 7.5, T opt 70 °C). An excerpt:
coupled enzyme assay on TTE2418 (glu/man-NacK)

Substrate in data set [1]: Nc1ncnc2c1ncn2[C@@H]1O[C@H](COP(=O)(O)OP(=O)(O)OP(=O)(O)O)[C@@H](O)[C@H]1O
Nature of the data set: purified protein. The note with it: glucose as co-substrate, Mg2+, Tris-HCl pH 8.0, 75 °C.

Substrate in data set [2]: Nc1ncnc2c1ncn2[C@@H]1O[C@H](COP(=O)(O)OP(=O)(O)O)[C@@H](O)[C@H]1O
Nature of the data set: purified protein. Conditions: glucose as co-substrate, Mg2+, Tris-HCl (pH optimum 8.0, T opt 80 °C).

B1: TTE2418 (glu/man-NacK) (Caldanaerobacter subterraneus subsp. tengcongensis MB4) (protein)
chain: MKVIGVDIGGTKILGGLIDERGNLLEETLVYTKAHLGREKILENLFIAIDKLIDKDVKGIGIGSAGRINFKEGIVEYATDNLPGWTGCNLKQLLEDRYKIPVIADNDVNAAVIGEIWQGAGRGYKDIVMIAIGTGVGGAIVYNGEVIRGGSWSAGEIGHMILYPKGRQCNCGQRGCLEQYVSGTAIARTYSEVSKEKKIAGAEEVFLLAEKGDKMALEIVNDFVNSLSIAILSLKNLLDPEIFIIGGGVIGAKRVWWDKLKKTLENRASITPAQLENKATMVGAAKLIIDYLSKNN
notes: recombinant
As to B1, in “coupled enzyme assay”, the Km is 1900 µM and the Vmax was 51/ND.

B2: TTE0090 (ATP-GLK) (Caldanaerobacter subterraneus subsp. tengcongensis MB4) (protein)
chain: MKKFLCGVDLGGTKISTGIVDENGNIIKSIKIPTMAEKGPDVVIERIEESIYQVLKDTGLEMSNLKGIGIGSPGPLNAKKGIVISPPNLPHWSNVPIVEILSKRLGIEVRLENDANAAAIGEHLFGSGRGVDNFVYITVSTGIGGGVIIEGKLYSGENSNAAEIGHHTINFDGPRCNCGNYGCFEAYASGTAIARFAREGIEKGIKTKIKELAGEGEVKAEHVFEAAKLGDEFAKELVEKEAFYLGVGIANIMAFYNPRKIAIGGGVSAQWDMLYEKMMETVRKKALKPNAEVCEVVKAQLGENIGVLGAAALLL
notes: recombinant, His-tagged
Take B2: in the data set “purified protein [1]”, the Km is 2600 µM and the Vmax is on record as 100/ND.

B3: TTE1961 (ADP-GLK) (Caldanaerobacter subterraneus subsp. tengcongensis MB4) (protein)
chain: MRIGVDLGGTNIAVGLVEEDGKIIATGSRPTKPERGYEAIARDIAELSFELLQRMGISVKDVKSMGIGVPGVADNEKGIVIRAVNLFWTKVPLAKEIRKYIDLPIYMENDANVAALAEATFGAGRGSKSSVTITLGTGVGSGFILDGKIYSGAHHFAPEIGHMVIGDNGIRCNCGKIGCFETYASATALIREGKKAAKRNPNTLILKFANGDIEGITAKNVIDAAKQYDEEALKIFEEYVKYLAVGIVNIINLFDPEVIILGGGVANAGDFLLKPLKKEVAENILFKELPYADIRKAELGNDAGIIGAAILS
notes: recombinant, His-tagged
With B3, the Km in the data set “purified protein [2]” was 900 µM.

For orientation: Km means the concentration of substrate that gives half-maximal velocity.
